Results: patent publication US20220380463A1 (Adimab, published 2022)

B1: SAD10320_P01_H02 (ADI-57352) (antibody, V domains shown)
VH: QVQLVQSGAEVKKPGASVKVSCKASGFNIKDYYMHWVRQAPGQRLEWMGWIDLENANTIYDAKFQGRVTITRDTSASTAYMELSSLRSEDTAVYYCARDAYGHSFYDVWGQGTLVTVSS
VL: DIVMTQSPDSLAVSLGERATINCKSSQSLLNARTGKNYLAWYQQKPGQPPKLLIYWASTRESGVPDRFSGSGSGTDFTLTISSLQAEDVAVYYCKQSMHRRTFGGGTKVEIK
B2: SAD10320_P01_C03 (ADI-57355) (antibody, V domains shown)
VH: QVQLVQSGAEVKKPGASVKVSCKASGFNIKDYYMHWVRQAPGQRLEWMGWIDLENANTIYDAKFQGRVTITRDTSASTAYMELSSLRSEDTAVYYCARDAYGHSFYDVWGQGTLVTVSS
VL: DIVMTQSPDSLAVSLGERATINCKSSQSLLNARTGKNYLAWYQQKPGQPPKLLIYWASTRESGVPDRFSGSGSGTDFTLTISSLQAEDVAVYYCKQSYHWRTFGGGTKVEIK
notes: IgG; also called Ab62
B3: SAD10320_P01_D03 (ADI-57356) (antibody, V domains shown)
VH: QVQLVQSGAEVKKPGASVKVSCKASGFDIKDYYMHWVRQAPGQRLEWMGWIDLENANTIYDAKFQGRVTITRDTSASTAYMELSSLRSEDTAVYYCARDAYGHAFYDVWGQGTLVTVSS
VL: DIVMTQSPDSLAVSLGERATINCKSSQSLLNARTGKNYLAWYQQKPGQPPKLLIYWASTRESGVPDRFSGSGSGTDFTLTISSLQAEDVAVYYCKQSYHGRTFGGGTKVEIK
notes: IgG; also called Ab63
B4: SAD10320_P01_E03 (ADI-57357) (antibody, V domains shown)
VH: QVQLVQSGAEVKKPGASVKVSCKASGFNIKDYYMHWVRQAPGQRLERMGWIDLENANTIYDAKFQGRVTITRDTSASTAYMELSSLRSEDTAVYYCARDAYGHGFYDVWGQGTLVTVSS
VL: DIVMTQSPDSLAVSLGERATINCKSSQSLLNARTGKNYLAWYQQKPGQPPKLLIYWASTRESGVPDRFSGSGSGTDFTLTISSLQAEDVAVYYCKQSYRHRTFGGGTKVEIK
notes: IgG; also called Ab64
B5: SAD10320_P01_G03 (ADI-57358) (antibody, V domains shown)
VH: QVQLVQSGAEVKKPGASVKVSCKASGFNIKDYYMHWVRQAPGQRPEWMGWIDLENANTIYDAKFQGRVTITRDTSASTAYMELSSLRSEDTAVYYCARDAYGHSFYDVWGQGTLVTVSS
VL: DIVMTQSPDSLAVSLGERATINCKSSQSLLNARTGKNYLAWYQQKPGQPPKLLIYWASTRESGVPDRFSGSGSGTDFTLTISSLQAEDVAVYYCKQSYHWRTFGGGTKVEIK
notes: IgG; also called Ab66
B6: SAD10320_P01_H03 (ADI-57359) (antibody, V domains shown)
VH: QVQLVQSGAEVKKPGASVKVSCKASGFNIKDYYMHWVRQAPGQRPEWMGWIDLENANTIYDAKFQGRVTITRDTSASTAYMELSSLRSEDTAVYYCARDAAHRYFYDVWGQGTLVTVSS
VL: DIVMTQSPDSLAVSLGERATINCKSSQSLLNARPRKNYLAWYQQKPGQPPKLLIYWASTRESGVPDRFSGSGSGTDFTLTISSLQAEDVAVYYCKQSHDRRTFGGGTKVEIK
notes: IgG; also called Ab67
B7: SAD10320_P02_A04 (ADI-57360) (antibody, V domains shown)
VH: QVQLVQSGAEVKKPGASVKVSCKASGFNIKDYYMHWVRQAPGQRLEWMGWIDLENANTIYDAKFQGRVTITRDTSASTAYMELSSLRSEDTAVYYCARDAYGHAFYDVWGQGTLVTVSS
VL: DIVMTQSPDSLAVSLGERATINCKSSQSLLNARTGKNYLAWYQQKPGQPPKLLIYWASTRESGVPDRFSGSGSGTDFTLTISSLQAEDVAVYYCKQSLHRRTFGGGTKVEIK
notes: IgG; also called Ab68
B8: SAD10320_P02_B04 (ADI-57273) (antibody, V domains shown)
VH: QVQLVQSGAEVKKPGASVKVSCKASGFNIKDYYMHWVRQAPGQRLERMGWIDLENANTIYDAKFQGRVTITRDTSASTAYMELSSLRSEDTAVYYCARDAYGHGFYDVWGQGTLVTVSS
VL: DIVMTQSPDSLAVSLGERATINCKSSQSLLNARTGKNYLAWYQQKPGQPPKLLIYWASTRESGVPDRFSGSGSGTDFTLTISSLQAEDVAVYYCKQSYGHRTFGGGTKVEIK
notes: IgG; ADI-57273 is also printed for Ab114; also called Ab70
B9: SAD10320_P02_H04 (ADI-57362) (antibody, V domains shown)
VH: QVQLVQSGAEVKKPGASVKVSCKASGFNIKDYYMHWVRQAPGQRLDWMGWIDLENANTIYDAKFQGRVTITRDTSASTAYMELSSLRSEDTAVYYCARDAYGHLFYDVWGQGTLVTVSS
VL: DIVMTQSPDSLAVSLGERATINCKSSQSLLNARTGKNYLAWYQQKPGQPPKLLIYWASTRESGVPDRFSGSGSGTDFTLTISSLQAEDVAVYYCKQSHMRRTFGGGTKVEIK
notes: IgG; also called Ab73
B10: SAD10320_P02_A05 (ADI-57363) (antibody, V domains shown)
VH: QVQLVQSGAEVKKPGASVKVSCKASGFNIKDYYMHWVRQAPGQRLEWMGWIDLENANTIYDAKFQGRVTITRDTSASTAYMELSSLRSEDTAVYYCARDAYGHMFYDVWGQGTLVTVSS
VL: DIVMTQSPDSLAVSLGERATINCKSSQSLLNARPGKNYLAWYQQKPGQPPKLLIYWASTRESGVPDRFSGSGSGTDFTLTISSLQAEDVAVYYCKQSYHMRTFGGGTKVEIK
B11: SAD10320_P02_B05 (ADI-57364) (antibody, V domains shown)
VH: QVQLVQSGAEVKKPGASVKVSCKASGFNIKDYYMHWVRQAPGQRLEWMGWIDLENANTIYDAKFQGRVTITRDTSASTAYMELSSLRSEDTAVYYCARDAYGHNFYDVWGQGTLVTVSS
VL: DIVMTQSPDSLAVSLGERATINCKSSQSLLNARTGKNYLAWYQQKPGQPPKLLIYWASTRESGVPDRFSGSGSGTDFTLTISSLQAEDVAVYYCKQSYTHRTFGGGTKVEIK
notes: IgG; also called Ab75
B12: SAD10320_P02_C05 (ADI-57365) (antibody, V domains shown)
VH: QVQLVQSGAEVKKPGASVKVSCKASGSNIKDYYMHWVRQAPGQRLEWMGWIDLENANTIYDAKFQGRVTITRDTSASTAYMELSSLRSEDTAVYYCARDAYGHSFYDVWGQGTLVTVSS
VL: DIVMTQSPDSLAVSLGERATINCKSSQSLLNARTGKNYLAWYQQKPGQPPKLLIYWASTRESGVPDRFSGSGSGTDFTLTISSLQAEDVAVYYCKQSYHGRTFGGGTKVEIK
notes: IgG; also called Ab76
B13: SAD10320_P02_E05 (ADI-57366) (antibody, V domains shown)
VH: QVQLVQSGAEVKKPGASVKVSCKASGFNIKDYYMHWVRQAPGQRLEWMGWIDLENANTIYDAKFQGRVTITRDTSASTAYMELSSLRSEDTAVYYCARDMHGRYFYDVWGQGTLVTVSS
VL: DIVMTQSPDSLAVSLGERATINCKSSQSLLNARTGKNYLAWYQQKPGQPPKLLIYWASTRESGVPDRFSGSGSGTDFTLTISSLQAEDVAVYYCKQSEHRRTFGGGTKVEIK
notes: IgG; also called Ab78
B14: SAD10320_P02_A06 (ADI-57367) (antibody, V domains shown)
VH: QVQLVQSGAEVKKPGASVKVSCKASGFNIKDYYMHWVRQAPGQRLPWMGWIDLENANTIYDAKFQGRVTITRDTSASTAYMELSSLRSEDTAVYYCARDAHERYFYDVWGQGTLVTVSS
VL: DIVMTQSPDSLAVSLGERATINCKSSQSLLNARTGKNYLAWYQQKPGQPPKLLIYWASTRESGVPDRFSGSGSGTDFTLTISSLQAEDVAVYYCKQSHLRRTFGGGTKVEIK
notes: IgG; also called Ab82
B15: SAD10320_P02_D06 (ADI-57368) (antibody, V domains shown)
VH: QVQLVQSGAEVKKPGASVKVSCKASGFNIKDYYMHWVRQAPGQRPAWMGWIDLENANTIYDAKFQGRVTITRDTSASTAYMELSSLRSEDTAVYYCARDAYGHGFYDVWGQGTLVTVSS
VL: DIVMTQSPDSLAVSLGERATINCKSSQSLLNARTGKNYLAWYQQKPGQPPKLLIYWASTRESGVPDRFSGSGSGTDFTLTISSLQAEDVAVYYCKQSYGHRTFGGGTKVEIK
notes: IgG; also called Ab85
B16: SAD10320_P02_E06 (ADI-57369) (antibody, V domains shown)
VH: QVQLVQSEAEVKKPGASVKVSCKASGFNIKDYYMHWVRQAPGQRLQWMGWIDLENANTIYDAKFQGRVTITRDTSASTAYMELSSLRSEDTAVYYCARDAYGHGFYDVWGQGTLVTVSS
VL: DIVMTQSPDSLAVSLGERATINCKSSQSLLNARPGKNYLAWYQQKPGQPPKLLIYWASTRESGVPDRFSGSGSGTDFTLTISSLQAEDVAVYYCKQSYSRRTFGGGTKVEIK
notes: IgG; also called Ab86
B17: SAD10320_P02_H06 (ADI-57372) (antibody, V domains shown)
VH: QVQLVQSGAEVKKPGASVKVSCKASGFNIKDYYMHWVRQAPGQRLEWMGWIDLENANTIYDAKFQGRVTITRDTSASTAYMELSSLRSEDTAVYYCARDAYGRNHYDVWGQGTLVTVSS
VL: DIVMTQSPDSLAVSLGERATINCKSSQSLLNARTGKSYLAWYQQKPGQPPKLLIYWASTRESGVPDRFSGSGSGTDFTLTISSLQAEDVAVYYCKQSYVHRTFGGGTKVEIK
notes: IgG; also called Ab89
B18: SAD10320_P03_B07 (ADI-57373) (antibody, V domains shown)
VH: QVQLVQSGAEVKKPGASVKVSCKASGFNIKDYYMHWVRQAPGQRLAWMGWIDLENANTIYDAKFQGRVTITRDTSASTAYMELSSLRSEDTAVYYCARDAYGHDFYDVWGQGTLVTVSS
VL: DIVMTQSPDSLAVSLGERATINCKSSQSLLNARTGKNYLAWYQQKPGQPPKLLIYWASTRESGVPDRFSGSGSGTDFTLTISSLQAEDVAVYYCKQSYSRRTFGGGTKVEIK
notes: IgG; also called Ab90
B19: SAD10320_P03_E07 (ADI-57374) (antibody, V domains shown)
VH: QVQLVQSGAEVKKPGASVKVSCKASGFNIKDYYMHWVRQAPGQRLEWMGWIDLENANTIYDAKFQGRVTITRDTSASTAYMELSSLRSEDTAVYYCARDAVHRYFYDVWGQGTLVTVSS
VL: DIVMTQSPDSLAVSLGERATINCKSSQSLLNARTGKNYLAWYQQKPGQPPKLLIYWASTRESGVPDRFSGSGSGTDFTLTISSLQAEDVAVYYCKQSYHPRTFGGGTKVEIK
notes: IgG; also called Ab92
B20: SAD10320_P03_C08 (ADI-57376) (antibody, V domains shown)
VH: QVQLVQSGAEVKKPGASVKVSCEASGFNIKDYYMHWVRQAPGQTLAWMGWIDLENANTIYDAKFQGRVTITRDTSASTAYMELSSLRSEDTAVYYCARDAYGHVFYDVWGQGTLVTVSS
VL: DIVMTQSPDSLAVSLGERATINCKSSQSLLNARTGKNYLAWYQQKPGQPPKLLIYWASTRESGVPDRFSGSGSGTDFTLTISSLQAEDVAVYYCKQSYLHRTFGGGTKVEIK
notes: IgG; also called Ab94
B21: SAD10320_P03_D08 (ADI-57377) (antibody, V domains shown)
VH: QVQLVQSGAEVKKPGASVKVSCKASGFNIKDYYMHWVRQAPGQRLEWMGWIDLENANTIYDAKFQGRVTITRDTSASTAYMELSSLRSEDTAVYYCARDAYGHQFYDVWGQGTLVTVSS
VL: DIVMTQSPDSLAVSLGERATINCKSSQSLLNARTGKNYLAWYQQKPGQPPKLLIYWASTRESGVPDRFSGSGSGTDFTLTISSLQAEDVAVYYCKQSYHTRTFGGGTKVEIK
notes: IgG; also called Ab95

Biological target: T1, Cynomolgus CD3εδ Fc heterodimer (Cy CD3ε Fc / CD3δ Fc-HIS) (cynomolgus, UniProt Q95LI8 22-100)
T1 chain 1: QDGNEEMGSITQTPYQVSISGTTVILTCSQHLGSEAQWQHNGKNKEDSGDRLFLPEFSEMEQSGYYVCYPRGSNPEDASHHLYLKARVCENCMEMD
T1 chain 2: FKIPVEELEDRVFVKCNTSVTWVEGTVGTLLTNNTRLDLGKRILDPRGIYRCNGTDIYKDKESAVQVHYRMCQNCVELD
Assay: BLI (Octet), IgG on AHC sensor, pH 6.0

Which koff does the source give for B1 here?
The koff was 0.00334 s⁻¹.

How did the koff turn out when B2 was run?
Its koff is 0.0195 s⁻¹.

B3 was tested. Which koff did it give?
Its koff is 0.00263 s⁻¹.

For B4, which koff is on record?
Its koff is 0.0223 s⁻¹.

With B5 as the binder, how does the koff read?
The koff was 0.0215 s⁻¹.

With B6 as the binder, how does the koff read?
Its koff is 0.00291 s⁻¹.

Which koff does the source give for B7 here?
Its koff is 0.0182 s⁻¹.

B8 was tested. Which koff did it give?
The koff was 0.0176 s⁻¹.

Which koff does the source give for B9 here?
Its koff is 0.0278 s⁻¹.

B10 was tested. Which koff did it give?
Its koff is 0.0168 s⁻¹.

Which koff does the source give for B11 here?
Its koff is 0.00269 s⁻¹.

For B12, which koff is on record?
The koff was 0.0207 s⁻¹.

With B13 as the binder, how does the koff read?
Its koff is 0.00318 s⁻¹.

Which koff does the source give for B14 here?
Its koff is 0.00264 s⁻¹.

B15 was tested. Which koff did it give?
Its koff is 0.00621 s⁻¹.

B16 was tested. Which koff did it give?
Its koff is 0.0303 s⁻¹.

With B17 as the binder, how does the koff read?
The koff was 0.00281 s⁻¹.

B18 was tested. Which koff did it give?
Its koff is 0.00224 s⁻¹.

B19 was tested. Which koff did it give?
Its koff is 0.00699 s⁻¹.

With B20 as the binder, how does the koff read?
The koff was 0.0152 s⁻¹.

How did the koff turn out when B21 was run?
Its koff is 0.00194 s⁻¹.
